Assay results taken from US20250241939A1, “NUCLEIC ACID-BASED DELIVERY SYSTEMS AND USES THEREOF” (Kodikaz Therapeutic Solutions, Inc., priority 2022, published 2025).

B1: 50 (nucleic acid, listed as Homo sapiens)
chain: CAGTCTTTCAGGACCAGAAGAGATGGATTTTAGGTTTTCCTTCCACTCAATGTATTCTATATGTACCCTAATCAACAAACATGCCTGGTTGTCACAGGTAGAAGGGGTCTCTACTCTGAATCATTCAGAGAAGAAATAATCATATTCTTTCGATGCTATCACTAACACAGGACCGTGATCCGAGACAACCAGGTTCAGTTCTTGATATGTAAAGGAATTTGGGAAAATATCATCTCTCACCACAAAATCTGTATTTTTATGTATATTTAAGCAAAATCCTGTTTTGGTCATCATTTTCTTTACCTTTCTTCTATATCCATCCTAATCTCCCTTTCAGC
B2: 52 (nucleic acid, listed as Homo sapiens)
chain: TCATCTCACAGAGTTAAACCTTTCTTTTGATTGAGCAGTTTTGAAACTCTCTTTTTGTAGAATCTACAAGTGGACATTGGGAGCTCTTTGAGGCCTATGTTAGAAAAGGAAATATCTTCACATAAAACCTAGATAGAGGCAATCTGAGAAACATCTTTGTGATGTGTGCATTCATCTCACGGAGTTAAACCTTTCTTTTCGTTGAGCAGTTTTTAAACTGTCTTTTTGTAGAATGTGCAAGTGGACATTTGGAGCGCTTTTTGTCCTATGGTGGGAAAGGAAGTATCTTCACATAAAAACTAGACCGAAGAATTCTGAGAAACTTCTTTGTGACGTGTACGTTCATCTCACTGAGTTGAACCTTTCTTTTGATTGAGCAGTTTGGAAACACTCTTTTTGTAGAATCTGCAAGTAGACATTTGGAGCGCTTTTCAGCCTACGGTAGAAAAGGAAATATCTTCACATCACAAAGAGAGAGTTTCAAAACTGCTCTATCAAAAGAAAGGTTTAACCCTGTGCGATGAATGCACATATCACAAAGAAGTTTCTCAGATTGCTTCTGTCTAGATTTTATGTGAAGATATTCCTTTTTCCACCATAGGCCTCAAAGCGCTCCAAATGTCCACTTGCAGATTCTACAAAAAGAGTGCTTCCAAACTGCTCGATGAAAAAAATGGTTCAACTCTGTGAGATGAATGCACGCATCACAAAGAAGTTTCTCAGAATTTTTCTATCTAGTATTTATTTGAAGATATTTCATTTTCCACCAT
B3: 55 (nucleic acid, listed as Homo sapiens)
chain: GCGGTGGCTCACGCTTGTAATCCCAGCACTTTGGGAGGCCGAGGTGGGCGGATCACGAGGTCAGGAGATCAAGACCACGGTGAAACCCCATCTCTACTAAAAATATAAAAAATTAGCCGGGCGTGGTGGTGGGCGCCTGTAATCCCAGCTACTCAGAGAGGCTGAGGCAGGAGAAGGGCGTGAACCCGGGAGGCGGAGCTTGTAGTGAGCTGAGATCGCGCCACTGCACTCCAGCACCCCAGCCTGGGTGACAGAGCGAGACTCCGTCTCAAAAAAATAATAATAATAATTAAATAAATAA
B4: 58 (nucleic acid, listed as Homo sapiens)
chain: TAGATGGAGGGGGAAAAACAGGGTGGGGAGCGGGAGGGAGGGAAGGTTTTGCAGAAAGACGGCGGTTAAAAAGTTTATGGGTAGATGGAGGGGGAAAAGAGGGTGGCAAGTGGGAGGAGGAAAGAGGGTGATAAGGGGGGGAAGTGGGGGTGAGCAGTAGGGAGAGAAGGTTTTGTGAAAAAAATGGGGAGAAAGGTTTTGGTTAGACGGGAGAAAAGAGGGTAACAAGTTGGGGAAGGAAAAAGAGGGTAGCTAGGAAGAAGACAAGGTTTTGCGAAAAGATAGCGGCCAGAAAAGAAAGACGGTGGAGAAAGGAAAGACGGTGGGTAAAAAGTGGGTAGATGGAGTGGGGAAAGAGGGT
B5: 60 (nucleic acid, listed as Homo sapiens)
chain: ATTCAGAAGACAAATCTCACATGCAAAGACACACATAGGCTCAAAATAAGTGGATGGAGGAATATTTACCAAGCAAATGGCAAGCAAAAAGAAAAAGCAGGGGTTGCAATCCTAGTATCTGATAAAACAGGCTTTAAACCAAGAAAGATCAAAAAAGACAAAGAAGGTCATTACATAATGGTAAAGGGATCAATGCAACAAGAAGAGCTAACTATCCTAAATATATACGCACCCAATACAGGAGCACCCAGATTCATAAAGTAAATTCTTAGAGACTACAAAGAGACTTATACTCCCATACAATAATAGTGGGAGATTTTAACACCTCATTGTTGATATTAGATCAATGAGACAGAAAATTAACAAGGATATTCAGGACTTGAACTCAGCACTGGACAAAGCAGATTTAATAGACATCTACAGAACTCTCTACCTCAGATCAACAGAATATACATTCTTCTCAGCACCACATAGCACTTATTCTAAAATTGACCACATAATTGGAAGTAAAACACTCCTCAACGAATGCAAAAGAATGGAAATCATAACAAACAGTCTCTCAGACCACAGTGCAATCAAATTAGAACTCAGGATTACGAAACTTACTCAAAACTGCACAACTACATGGAAACTGAACAACCTGCTCCTGAACGACTACTGGGTAAATAATGAAATGAAGGCAGAAATAAATAAGTTTTTGAAACCAATGAGAACAAAGACACAACATACCAGAATCTCTGGGACACAGCTAAAACAGTG
B6: 61 (nucleic acid, listed as Homo sapiens)
chain: TATTTTTAAGCAAAGACTTAGAGAGAGAGAGGAAGTTAGCTATGCACATTGTGGGTGCGGTGTGGTTAGGGTGGCCCTGAGATAGGGATATGCCTGGTGTGTTTACGGAACAGCTAAGAGGCCAGGGAACTAGAGGAAATTGAGTGGGAAGGAGAAGAGTAGGAGATTAGTTTTGAAAAGCAAATGGTTTGGGAATATGGATCATGTAAGAGCACATGAGATTTTATAAGGATTTCATTTTACTCAGGGTGAAATGAAGAAGCACTAAAA
B7: 26 (nucleic acid, listed as Homo sapiens)
chain: AATTACAACAACCCTTAATATTTGTAAAGCGCTTGATAATTCAGGGAGGGCTTTTAAAAACTTCTATCCATCTCTTCCCCCCAGCAATCCTATGAGGTAGGCAGGGCTGGAATCATTTGCTGCATTTTATCGAATAGGAAGCCATGACTCGTAGAGGTCTGGTGACTTAACTGAGGTCACCCACTGAGGACGTGGCAGAGCTGGGTCCTGAATCTGTGGCCCTCAGGCTCTTTGCCTGGCCCTGCCTCACATAGACTACGCTGCCTCT
B8: 67 (nucleic acid, listed as Homo sapiens)
chain: CCTTAATAGTTAATCTCCTATTAATAAGTAAGTGATTCTTTAATTAAACTTTCCTCATTCAAATGGCCATATGCTTTCTGTCTCTCGACTAGATGCTGAGTGATATACCCCCCA
modifications: listed as DNA, chemistry not fully specified
B9: MIRc (nucleic acid, listed as Homo sapiens)
DNA: B7 chain

Tested on: MIA (pancreatic cancer) cell genome
Assay: ctDNA coculture with MIA cells, whole genome sequencing: genomic insertion sites, transposons at insertion points and SNVs (pancreatic cancer)
Assay type: cell-based, human
Conditions: for Location: identified genomic insertion site, chromosome; for No. SNP: number of single nucleotide variants (SNVs or SNPs) identified, polynucleotides for pancreatic cancer cells; for Chr location: position on the chromosome of the identified genomic insertion site
Description: The integration of ctDNAs into the host cell genome was evaluated. ctDNA was extracted from patient plasma, cultured for 24 hours with cells of a matching cancer cell type or non-matching cancer cell type, and whole genome sequencing was performed. The cell lines used were MM1s (multiple myeloma, MM) and MIA (pancreatic cancer, PC).
The sequence data was used to reconstruct genomic contigs for each experimental condition by de novo assembly. […] Coculture contigs carrying a ctDNA insertion were identified using NucDiff analysis.
Experiments were designed to identify the presence of transposons in ctDNA fragments. To map ctDNA genomic junctions more precisely, a PACBIO probe was ligated to multiple myeloma and pancreatic cancer ctDNA samples to label their 5′ and 3′ ends. Whole-genome sequencing of DNA from cells with ctDNA genomic integration was done using the Illumina platform. De novo assembly was performed on the sequencing output. ctDNA contigs containing PACBIO adaptor were then matched to those contigs containing inserted ctDNA sequences identified in the coculture experiments. Transposable element on ctDNA sequences at the insertion points (<100 nucleotides from transition point between cell and ctDNA) were detected and classified using RepeatMaster.
A search was conducted for transposons that preferentially target cells of matching tumor types. The lists of transposons identified at the ctDNA insertion point in matching and mismatched coculture conditions were compared (e.g., MM ctDNA with MM cells or PC cells). Transposons were selected that were uniquely or preferentially inserted in the matching conditions.
Whole-genome sequencing and Whole exon sequencing: ctDNA was extracted from 10 MM and 10 PC patients. DNA from CD138 (+) cells and from cell lines used in in vitro experiments (MM1s and MIA) was extracted using Blood & Cell Culture DNA Mini Kit (Quiagen, MD). DNA from […] paraffin embedded pancreatic tumors was obtained using QIAamp DNA FFPE Tissue Kit Print (Qiagen, MD).
After extraction, ctDNA was ligated to the PACBIO adaptor ([…]) using the ABM DNA Library Prep Kit for Illumina Sequencing (Applied Biological Materials Inc. Canada). PACBio-labeled ctDNA and regular ctDNA were subjected to standard methods for library preparation and sequencing using Illumina and Agilent protocols, respectively. Applied Biological Materials Inc. prepared the libraries and performed whole-exon and -genome sequencing.
Identification of transposable elements and its nucleotide variants: To determine the locations of transposable-like regions in contigs, sequences were analyzed and transposable elements (TEs) were identified and classified using RepeatMasker version 4.1.0 and the Dfam database (release 3.1) of repetitive DNA families was used as a reference for identifying repeats in ctDNA contig sequences that were part of qualifying structural events. For each repeat sequence identified by RepeatMasker, the overall frequency of the specific repeat (e.g., for AluSp or L1) and their parent class (e.g., SINE) was computed.
Once the TE elements were identified, hit repeats/TE sequences, unique contigs for all samples, and insertion sequence were aligned with MAFFT software version. Mutations in TE sequences were identified by comparison of nucleotides at each position in the multiple sequence alignment with the “Biostrings” R package (version 4.1). A position was considered to contain mutation if the substitution was present in contigs of all samples.

Row | Molecule | Location (TABLE 4) | No. SNP (TABLE 4) | Chr location (TABLE 4) | Gene (TABLE 4, gene at identified genomic insertion site) | blast orientation (TABLE 8, pancreatic cancer co-culture, BLAST alignment orientation) | blast chr (TABLE 8, pancreatic cancer co-culture, chromosome with the longest result for BLAST analysis of the full contig) | Transposon orientation (TABLE 8, pancreatic cancer co-culture, compared with the human reference genome) | Location relative to insertion (TABLE 8, pancreatic cancer co-culture, location of the transposon relative to the insertion on the contig)
1 | B1 | Chr 7 | 3 | 18828526 |  |  |  |  | 
2 | B2 | Chr 7 | 55 | 57988111 |  |  |  |  | 
3 | B3 | Chr 14 | 1 | 103067410 |  |  |  |  | 
4 | B4 | Chr 13 | 1 | 19693028 |  |  |  |  | 
5 | B5 | Chr 4 | 1 | 36939485 |  |  |  |  | 
6 | B6 | Chr 14 | 1 | 21413450 |  |  |  |  | 
7 | B7 | Chr16 | 0 |  | PPAC |  |  |  | 
8 | B8 | Chr 19 | 1 | 40372997 |  |  |  |  | 
9 | B9 |  |  |  |  | Plus/Plus | chr16 and chr8 | direct | left
